This series concerns MS2 coat protein. Description: apparent KD of MS2 coat protein; designed switch direction (-1 OFF switch, 1 ON switch): -1; higher = weaker reporter binding. The essentials:
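Designed RNA switches sharing common flanks were transcribed on Illumina chips by stalled E. coli RNA polymerase. They were titrated with SNAP-549-labelled MS2 coat protein, from 0.7 or 1.5 nM doubling to 3 µM, in Tris-HCl pH 7.5 buffer with KCl, MgCl2, BSA, DTT, tRNA and Tween-20. Titrations ran without input, with 200 uM small-molecule ligand, or with an oligonucleotide input. The apparent KD of each design is the median over its clusters, after curve-fitting of normalised cluster fluorescence.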

Where [1] appears, read: Eterna round: R95, input ligand: FMN 200 uM.
The mark [2] stands for this setting: Eterna round: R95, input ligand: microRNA oligo, concentration not stated.
[3] abbreviates: Eterna round: R95, input ligand: none.
The mark [4] stands for this setting: input ligand: microRNA oligo, concentration not stated.

Take “AAGCUGUCAGGAUAUCGUUAAUUUAGUUGUUUGUAUUAGUUCGAGAAGGGACAUGAGGAUCACCCAUGUAUGUA [Ex4 #39] (Eterna round: R97, puzzle: Exclusion 4)”: the “apparent KD of MS2 coat protein” value runs as follows: (input ligand: FMN 200 uM) 76.3 nM; (input ligand: none) 34.2 nM.
With “ACCAUGUCUGAGGAUAUGCAAGCGUACCACGCGGUAGAAGGCAGCACAUGAGGAUCACCCAUGUGGGUAUGCUA [Inanenqu] (puzzle: Exclusion 6)”, the “apparent KD of MS2 coat protein” value by setting is: under setting [1], 15.3 nM; under setting [2], 9.92 nM; under setting [3], 14.8 nM.
“UAAUAGAUGGUUAGGAUAUGCUGGCCUAGGCCGCGGCAGAAGGAACAUGAGGAUCACCCAUGUAGUAGGAUCCA [Eternabot (L2) Solution 15] (Eterna round: R97, puzzle: Brourd's mod of Exclusion 4)”: the “apparent KD of MS2 coat protein” value is 204 nM (input ligand: FMN 200 uM) and 98.6 nM (input ligand: none).
Regarding “AGUAACAGAGGAUAUACUGUUUUAUGUAUUUAUUAUUUUAAACAUGAGGAUCACCCAUGUAGAAGGCUGAAUAA [JMF 81] (puzzle: Exclusion 2)”, under setting [2], the “apparent KD of MS2 coat protein” value was determined as 17.5 nM.
For the sequence “UCACGGGACUGAGGAUAUACAUGAACCAUUUUUGUAGAAGGCAGAAUGUUUGAUCAUACACUAAACAUGAGGAUCACCCAUGUU [JR_ExcNG1_Sub026] (Eterna round: R96, puzzle: Exclusion NG 1)”, the “apparent KD of MS2 coat protein” value reads like this: (input ligand: FMN 200 uM) 16 nM; under setting [4], 16.3 nM; (input ligand: none) 20.1 nM.
Turning to “GCCAGAGCAGGAUAUUCAAUAUGUCACAUGAGGAUCACCCAUGUCCAGCGAAAGCUGGAGGGAGAAGGGCUCUGGC [Fiskers Ex 5 - 18] (puzzle: Exclusion 5)”, the “apparent KD of MS2 coat protein” value came out at 23.7 nM under setting [1], 89.3 nM under setting [2] and 119 nM under setting [3].
“AAUAACAAGCAAGAUCCUAACAUGAGGAUCACCCAUGUGCUCGUCUUAUAAAGUACUAUCACGAAAGUGAUAGUACA [Sensor 3, v1 - 45] (puzzle: Sensor v3, turn-off variant 1)”: the “apparent KD of MS2 coat protein” value under setting [1] was determined as 470 nM, the “apparent KD of MS2 coat protein” value under setting [2] was determined as 306 nM and the “apparent KD of MS2 coat protein” value under setting [3] turned out to be 420 nM.
Take “GAGUAGUAAGGAUAUAGUAGGAGGGAGAAGAGAGGAGAGAACUAGAAGGUACAUGAGGAUCACCCAUGUUGAGA [JR_Exclu4_Sub083] (puzzle: Exclusion 4)”: the “apparent KD of MS2 coat protein” value is, setting by setting: under setting [1], 18.5 nM; under setting [2], 17 nM; under setting [3], 20.4 nM.
“AAAACUAACACGAAAGUGUUAGUAAAAUAAGCUUGUGGUACAUGAGGAUCACCCAUGUCCUCAUAAGCUCGUCUUAU [Mat - Sensor v3 - Turn-off var 2 - D44] (puzzle: Sensor v3, turn-off variant 2)”: the “apparent KD of MS2 coat protein” value runs as follows: under setting [1], 25.1 nM; under setting [2], 67.7 nM; under setting [3], 24.5 nM.
As for “ACAUGAGGAUCACCCAUGUCGAGUACAUGAGGAUCACCCAUGUAGGAUAUGGUUCGCUUUGCGUGCUAGAAGGAUAUGUGUUGA [salish99_ExNG3_r04_510] (Eterna round: R96, puzzle: Exclusion NG 3)”, the “apparent KD of MS2 coat protein” value by setting is: (input ligand: FMN 200 uM) 321 nM; under setting [4], 148 nM; (input ligand: none) 226 nM.
For the sequence “CUUUAACAAGCGAGAUCCAACAUGAGGAUCACCCAUGUGCAUCCACGAUUAGUGGGUGCGAAAGCUCGUCUUAUAUG [v1] (Eterna round: R97, puzzle: Sensor, turn-off variant 1)”, the “apparent KD of MS2 coat protein” value turned out to be 20.9 nM (input ligand: FMN 200 uM) and 21.6 nM (input ligand: none).
Regarding “AGCUGUGGCCGAGGAUAUGACAUGAGGAUCACCCAUGUACAUAAUUAGGCCUGGUAACAGGCUCUUCAGAAGGCGGUCUCAGCA [Eli eng2 - 006] (Eterna round: R96, puzzle: Exclusion NG 2)”, the “apparent KD of MS2 coat protein” value came to 7.27 nM (input ligand: FMN 200 uM), 6.45 nM under setting [4] and 11.8 nM (input ligand: none).
In the case of “GGUGCGUUUGUGAGGAUAUGCUGGUCCUUGGUUCGGCAGAAGGCACAUGAGGAUCACCCAUGUGGUGUCGCUCC [salish99_Bmod_Ex4_050] (puzzle: Brourd's mod of Exclusion 4)”, under setting [2], the “apparent KD of MS2 coat protein” value was 36.4 nM.
“AACUGUCUAAAGGAUAUGCUGGAUUAAUAUCUGGCAGAAGGUUAGACAUGAGGAUCACCCAUGUAAAUACCACC [Omei Ex6 A10] (Eterna round: R97, puzzle: Exclusion 6)”: the “apparent KD of MS2 coat protein” value (input ligand: FMN 200 uM) turned out to be 106 nM and the “apparent KD of MS2 coat protein” value (input ligand: none) came out at 19.5 nM.
With “GAAAAGGUAGGAUAUACGAAAAAAAAGGGUAGAAAUAAAACACAUGAGGAUCACCCAUGUAGAAGGACCAAAAG [salish99_ex2_r3_076] (puzzle: Exclusion 2)”, the “apparent KD of MS2 coat protein” value was found to be 74.5 nM under setting [1], 20.9 nM under setting [2] and 15.5 nM under setting [3].
On to “UAUGAGUCAGGAUAUUAGUAGUGUGUGGAUACAUAUAUUGCUGAGAAGGGACAUGAGGAUCACCCAUGUAUAAG [JR_Ex4_Sub056] (Eterna round: R97, puzzle: Exclusion 4)”, for which the “apparent KD of MS2 coat protein” value runs as follows: (input ligand: FMN 200 uM) 65.3 nM; (input ligand: none) 26.1 nM.
For “AGGUCACAUGAGGAUCACCCAUGUCAGGAUAUCUACAUUGAAGCUUCGGCUUCAAUGUAGAGAAGGGACAAUUA [E1/6-B1] (Eterna round: R97, puzzle: Exclusion 1)”, the “apparent KD of MS2 coat protein” value is, setting by setting: (input ligand: FMN 200 uM) 341 nM; (input ligand: none) 75.7 nM.
Regarding “CAUUUGUGAGGAUAUCAGGUGUGCUAGCGUACUGGUACAUCUGAGAAGGCACAUGAGGAUCACCCAUGUUUCUU [Mat - Exclusion 4 - Mod of JL - D37] (puzzle: Exclusion 4)”, the “apparent KD of MS2 coat protein” value under setting [2] worked out at 15.9 nM.
In the case of “CUUUGGUCAGGAUAUGGUGGGCUGGUCGCGCGGCCGGGUGGCCAGAAGGGACAUGAGGAUCACCCAUGUACGGC [excls4-X] (Eterna round: R96, puzzle: Exclusion 4)”, the “apparent KD of MS2 coat protein” value came out at 106 nM (input ligand: FMN 200 uM), 53 nM under setting [4] and 84.3 nM (input ligand: none).
For “GUCUCACAUGAGGAUCACCCAUGUGAGGAUAUACUGGGCAUUCUGGUGGCAGGUGGGCGUAGAAGGCACGUGGG [Eternabot (L1) Solution 82] (Eterna round: R97, puzzle: Exclusion 1)”, the “apparent KD of MS2 coat protein” value (input ligand: FMN 200 uM) was 33.8 nM and the “apparent KD of MS2 coat protein” value (input ligand: none) turned out to be 19.4 nM.
For “AUAAAAGCAGGAUAUGCGCGGUGUGAUGCCGCAUGCUCGUCACAUGAGGAUCACCCAUGUAGAAGGGCUAAAUG [Diramadidi] (Eterna round: R97, puzzle: Exclusion 2)”, in that order: 19.3 nM and 15.6 nM.
Take “GCAGCAUAGUUAACAUACUGUUACAUGAGGAUCACCCAUGUACAGGAUAUGGUCUGGAUUACAGGCCAGAAGGGUACAAGCUGC [Eli exng3 - 020] (Eterna round: R96, puzzle: Exclusion NG 3)”: the “apparent KD of MS2 coat protein” value amounted to 10.7 nM (input ligand: FMN 200 uM), 7.8 nM under setting [4] and 12.6 nM (input ligand: none).
With “UCAGGUCGGUAGGAUAUCGACGGGAAAAUCCCACGAGAAGGACUGACAUGAGGAUCACCCAUGUGAGCGUAACC [EX6 B.11] (Eterna round: R97, puzzle: Exclusion 6)”, the “apparent KD of MS2 coat protein” value is, setting by setting: (input ligand: FMN 200 uM) 149 nM; (input ligand: none) 202 nM.
Take “CCCUCACAUGAGGAUCACCCAUGUCAGGAUAUUCAAAGCGCAAAUGCGCCAAAUGCAGGAAGAAGGGACGUGCC [Bisoar] (puzzle: Exclusion 1)”: the “apparent KD of MS2 coat protein” value under setting [2] came to 13.3 nM.
As for “AGCUGUGGCCGAGGAUAUCUAAACUCAAUAACCGAAAUAUAAUCGGACAUGAGGAUCACCCAUGUAGAGAAGGCGGUCUCAGCA [Eli eng2 - 081] (Eterna round: R96, puzzle: Exclusion NG 2)”, the “apparent KD of MS2 coat protein” value under setting [4] came to 28 nM.
As to “UUAUUAAGUGUGAGGAUAUGCUGGUCCUUGGAUCAGCAGAAGGCACAUGAGGAUCACCCAUGUACUUUAUUUUA [JL bmx4 3.04] (puzzle: Brourd's mod of Exclusion 4)”, under setting [2], the “apparent KD of MS2 coat protein” value was determined as 15.5 nM.
In the case of “CGGCAUGAAGGAUAUACAUGAGGAUCACCCAUGUAAGUUACCUACAUGGCCUCACCUAGUAGAAGGUUAUCCGG [Eternabot (L2) Solution 72] (Eterna round: R97, puzzle: Exclusion 3)”, the “apparent KD of MS2 coat protein” value runs as follows: (input ligand: FMN 200 uM) 94.4 nM; (input ligand: none) 28 nM.
Turning to “UUAAUGAUUGUGAGGAUAUUUCAUAGAUAGAUAUUAGAGAAGGUACAUGAGGAUCACCCAUGUGUGAUUAGAGA [Brourd's EX4 #71] (Eterna round: R97, puzzle: Brourd's mod of Exclusion 4)”, the “apparent KD of MS2 coat protein” value reads like this: (input ligand: FMN 200 uM) 89.7 nM; (input ligand: none) 93.5 nM.
As for “GUAGAGUCAGGAUAUACGAGAUCGAAAGAUCUUUGAUCCUUACAUGAGGAUCACCCAUGUAGAAGGGACUCUAC [Omei mod 2 to Eli's favorate candidate (ch.parushev)] (Eterna round: R97, puzzle: Exclusion 2)”, the “apparent KD of MS2 coat protein” value was found to be 513 nM (input ligand: FMN 200 uM) and 43.2 nM (input ligand: none).
“CAGCUGAAAGUGAGGAUAUCUAGAGCCUCGGCUCUAGAGAAGGCACAUGAGGAUCACCCAUGUGAUCACAGCUG [BmEx4/7-A2] (Eterna round: R97, puzzle: Brourd's mod of Exclusion 4)”: the “apparent KD of MS2 coat protein” value amounted to 1320 nM (input ligand: FMN 200 uM) and 307 nM (input ligand: none).
As to “CAUGUGUUAGGAUAUGCACAGAUCUCCUAAUGGAGAUCUGUGCAGAAGGGACAUGAGGAUCACCCAUGUUGAUG [Mod of Brourd 14 - Jieux - Exclusion 4] (Eterna round: R97, puzzle: Exclusion 4)”, the “apparent KD of MS2 coat protein” value (input ligand: FMN 200 uM) turned out to be 78.6 nM and the “apparent KD of MS2 coat protein” value (input ligand: none) was 48.6 nM.

These data come from the supplement of paper PMC9170038.
